How the values were obtained:
[1] = target: T1, DGKI peptide NRKKKRTSFKRKA (SEQ ID NO:79) (not fully specified)
T1 chain: NRKKKRTSFKRKA

[2] = target: T2, MGC2941 peptide RPTPGDGEKRSRIKKSKKRK (SEQ ID NO:139) (not fully specified)
T2 chain: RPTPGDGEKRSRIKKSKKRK

[3] = target: T3, ADD2 peptide KKKFRTPSFLKKSKK (SEQ ID NO:95) (not fully specified)
T3 chain: KKKFRTPSFLKKSKK

[4] = target: T4, MARCKS peptide KKRFSFKKSFKLSGFSFKKN (SEQ ID NO:123) (not fully specified)
T4 chain: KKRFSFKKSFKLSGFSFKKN

[5] = target: T5, Myt1 kinase peptide PPRTPGWHQLQPRRVSFRGE (SEQ ID NO:163) (not fully specified)
T5 chain: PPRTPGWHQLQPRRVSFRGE

[6] = target: T6, ARHGAP4 peptide AGPLRKSSLKKGGRL (SEQ ID NO:98) (not fully specified)
T6 chain: AGPLRKSSLKKGGRL

[7] = target: T7, kinesin 3C peptide LEKRGMLGKRPRRKSSRRKK (SEQ ID NO:133) (not fully specified)
T7 chain: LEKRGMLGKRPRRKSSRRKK

[8] = target: T8, CACNA1C peptide RGFLRSASLGRRASFHLE (SEQ ID NO:96) (not fully specified)
T8 chain: RGFLRSASLGRRASFHLE

[9] = target: T9, NMDAR1 peptide RAITSTLASSFKRRR (SEQ ID NO:122) (not fully specified)
T9 chain: RAITSTLASSFKRRR

[10] = target: T10, MARCKS peptide KKKRFSFKKSFKLSGFSFKK (SEQ ID NO:111) (not fully specified)
T10 chain: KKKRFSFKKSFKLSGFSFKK

[11] = target: T11, beta adducin peptide PSKSPSKKKKKFRTPSFLKK (SEQ ID NO:137) (not fully specified)
T11 chain: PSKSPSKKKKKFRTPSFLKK

[12] = target: T12, NEURL peptide ALRRPSLRREADD (SEQ ID NO:105) (not fully specified)
T12 chain: ALRRPSLRREADD

[13] = target: T13, PRKCA peptide RFARKGSLRQKNV (SEQ ID NO:85) (not fully specified)
T13 chain: RFARKGSLRQKNV

[14] = target: T14, cytohesin-2 peptide VDPFYEMLAARKKRISVKKK (SEQ ID NO:150) (not fully specified)
T14 chain: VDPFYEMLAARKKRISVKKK

[15] = target: T15, NCF1 peptide GAPPRRSSIRNAH (SEQ ID NO:101) (not fully specified)
T15 chain: GAPPRRSSIRNAH

[16] = target: T16, ubiquitin specific protease 8 peptide RARRDSLKKIEIW (SEQ ID NO:136) (not fully specified)
T16 chain: RARRDSLKKIEIW

[17] = target: T17, gravin peptide KKFFTQGWAGWRKKTSFRKP (SEQ ID NO:154) (not fully specified)
T17 chain: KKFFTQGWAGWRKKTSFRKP

[18] = target: T18, NR4A3 peptide KEVVRTDSLKGRRGR (SEQ ID NO:109) (not fully specified)
T18 chain: KEVVRTDSLKGRRGR

[19] = target: T19, NIK peptide WKGKRRSKARKKRK (SEQ ID NO:131) (not fully specified)
T19 chain: WKGKRRSKARKKRK

[20] = target: T20, PSCDBP peptide LSSMFGTLPRKSRKGSVRKQ (SEQ ID NO:144) (not fully specified)
T20 chain: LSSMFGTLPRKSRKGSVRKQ

[21] = target: T21, EBNA1BP2 peptide KRPGKKGSNKRPGKR (SEQ ID NO:112) (not fully specified)
T21 chain: KRPGKKGSNKRPGKR

[22] = target: T22, FLJ20574 peptide GENVLKKSMKSRVKG (SEQ ID NO:113) (not fully specified)
T22 chain: GENVLKKSMKSRVKG

[23] = target: T23, PLD1 peptide KYKAFIRIPIPTRRHTFRRQ (SEQ ID NO:161) (not fully specified)
T23 chain: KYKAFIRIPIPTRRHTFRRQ

[24] = target: T24, … peptide KKPFKLSGLSFKRNRKE (SEQ ID NO:88) (not fully specified)
T24 chain: KKPFKLSGLSFKRNRKE

[25] = target: T25, PRKCM peptide VHYTSKDTLRKRHYWR (SEQ ID NO:91) (not fully specified)
T25 chain: VHYTSKDTLRKRHYWR

[26] = target: T26, AKAP12 peptide AGWRKKTSFRKPKED (SEQ ID NO:99) (not fully specified)
T26 chain: AGWRKKTSFRKPKED

[27] = target: T27, calcium channel, voltage-dependent, L type, alpha peptide RDIRQSPKRGFLRSASLGRR (SEQ ID NO:147) (not fully specified)
T27 chain: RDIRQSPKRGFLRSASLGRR

[28] = target: T28, LIMK-2 peptide LRRRSLRRSNSISKSPGP (SEQ ID NO:121) (not fully specified)
T28 chain: LRRRSLRRSNSISKSPGP

[29] = target: T29, GABRB2 peptide QKKSRLRRRASQLKI (SEQ ID NO:84) (not fully specified)
T29 chain: QKKSRLRRRASQLKI

[30] = target: T30, KCNH2 peptide RQRKRKLSFRRRTDKD (SEQ ID NO:86) (not fully specified)
T30 chain: RQRKRKLSFRRRTDKD

[31] = target: T31, ankyrin R peptide DLIEGRKGAQIVKRASLKRG (SEQ ID NO:152) (not fully specified)
T31 chain: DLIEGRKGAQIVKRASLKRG

B1: PKC-epsilon (protein)
chain: MVVFNGLLKIKICEAVSLKPTAWSLRHAVGPRPQTFLLDPYIALNVDDSRIGQTATKQKTNSPAWHDEFVTDVCNGRKIELAVFHDAPIGYDDFVANCTIQFEELLQNGSRHFEDWIDLEPEGRVYVIIDLSGSSGEAPKDNEERVFRERMRPRKRQGAVRRRVHQVNGHKFMATYLRQPTYCSHCRDFIWGVIGKQGYQCQVCTCVVHKRCHELIITKCAGLKKQETPDQVGSQRFSVNMPHKFGIHNYKVPTFCDHCGSLLWGLLRQGLQCKVCKMNVHRRCETNVAPNCGVDARGIAKVLADLGVTPDKITNSGQRRKKLIAGAESPQPASGSSPSEEDRSKSAPTSPCDQEIKELENNIRKALSFDNRGEEHRAASSPDGQLMSPGENGEVRQGQAKRLGLDEFNFIKVLGKGSFGKVMLAELKGKDEVYAVKVLKKDVILQDDDVDCTMTEKRILALARKHPYLTQLYCCFQTKDRLFFVMEYVNGGDLMFQIQRSRKFDEPRSRFYAAEVTSALMFLHQHGVIYRDLKLDNILLDAEGHCKLADFGMCKEGILNGVTTTTFCGTPDYIAPEILQELEYGPSVDWWALGVLMYEMMAGQPPFEADNEDDLFESILHDDVLYPVWLSKEAVSILKAFMTKNPHKRLGCVASQNGEDAIKQHPFFKEIDWVLLEQKKIKPPFKPRIKTKRDVNNFDQDFTREEPVLTLVDEAIVKQINQEEFKGFSYFGEDLMP
Protein B1 has an in vitro phosphorylation (% of best substrate) [1] of 92, an in vitro phosphorylation, 1 uM peptide (% of best substrate) [2] of 24 and an in vitro phosphorylation (% of best substrate) [3] of 31. It also gave an in vitro phosphorylation, 1 uM peptide (% of best substrate) [4] of 67, an in vitro phosphorylation, 1 uM peptide (% of best substrate) [5] of 14 and an in vitro phosphorylation (% of best substrate) [6] of 34. The in vitro phosphorylation, 1 uM peptide (% of best substrate) [7] was 31, the in vitro phosphorylation (% of best substrate) [8] was 41 and the in vitro phosphorylation, 1 uM peptide (% of best substrate) [9] was 72. The in vitro phosphorylation (% of best substrate) [10] was 12, the in vitro phosphorylation, 1 uM peptide (% of best substrate) [11] was 32 and the in vitro phosphorylation (% of best substrate) [12] was 29. For the same protein, the in vitro phosphorylation (% of best substrate) [13] was 86, the in vitro phosphorylation, 1 uM peptide (% of best substrate) [14] was 20 and the in vitro phosphorylation (% of best substrate) [15] was 19. For the same protein, the in vitro phosphorylation, 1 uM peptide (% of best substrate) [16] was 33, the in vitro phosphorylation, 1 uM peptide (% of best substrate) [17] was 29 and the in vitro phosphorylation (% of best substrate) [18] was 26. The in vitro phosphorylation, 1 uM peptide (% of best substrate) [19] was 43, the in vitro phosphorylation, 1 uM peptide (% of best substrate) [20] was 24 and the in vitro phosphorylation (% of best substrate) [21] was 11. The in vitro phosphorylation (% of best substrate) [22] was 10, the in vitro phosphorylation, 1 uM peptide (% of best substrate) [23] was 21 and the in vitro phosphorylation (% of best substrate) [24] was 44. It also gave an in vitro phosphorylation (% of best substrate) [25] of 49, an in vitro phosphorylation (% of best substrate) [26] of 27 and an in vitro phosphorylation, 1 uM peptide (% of best substrate) [27] of 26. It also gave an in vitro phosphorylation, 1 uM peptide (% of best substrate) [28] of 49, an in vitro phosphorylation (% of best substrate) [29] of 52 and an in vitro phosphorylation (% of best substrate) [30] of 63. It also gave an in vitro phosphorylation, 1 uM peptide (% of best substrate) [31] of 25.

B2: PKC-theta (protein)
chain: MSPFLRIGLSNFDCGSCQSCQGEAVNPYCAVLVKEYVESENGQMYIQKKPTMYPPWDSTFDAHINKGRVMQIIVKGKNVDLISETTVELYSLAERCRKNNGKTEIWLELKPQGRMLMNARYFLEMSDTKDMNEFETEGFFALHQRRGAIKQAKVHHVKCHEFTATFFPQPTFCSVCHEFVWGLNKQGYQCRQCNAAIHKKCIDKVIAKCTGSAINSRETMFHKERFKIDMPHRFKVYNYKSPTFCEHCGTLLWGLARQGLKCDACGMNVHHRCQTKVANLCGINQKLMAEALAMIESTQQARCLRDTEQIFREGPVEIGLPCSIKNEARPPCLPTPGKREPQGISWESPLDEVDKMCHLPEPELNKERPSLQIKLKIEDFILHKMLGKGSFGKVFLAEFKKTNQFFAIKALKKDVVLMDDDVECTMVEKRVLSLAWEHPFLTHMFCTFQTKENLFFVMEYLNGGDLMYHIQSCHKFDLSRATFYAAEIILGLQFLHSKGIVYRDLKLDNILLDKDGHIKIADFGMCKENMLGDAKTNTFCGTPDYIAPEILLGQKYNHSVDWWSFGVLLYEMLIGQSPFHGQDEEELFHSIRMDNPFYPRWLEKEAKDLLVKLFVREPEKRLGVRGDIRQHPLFREINWEELERKEIDPPFRPKVKSPFDCSNFDKEFLNEKPRLSFADRALINSMDQNMFRNFSFMNPGMERLIS
In the case of B2, the in vitro phosphorylation (% of best substrate) [1] is reported as 33, the in vitro phosphorylation, 1 uM peptide (% of best substrate) [2] is reported as 31 and the in vitro phosphorylation, 10 uM peptide (% of best substrate) [2] is reported as 17. For the same protein, the in vitro phosphorylation (% of best substrate) [3] was 42, the in vitro phosphorylation, 1 uM peptide (% of best substrate) [4] was 47 and the in vitro phosphorylation, 10 uM peptide (% of best substrate) [4] was 32. The in vitro phosphorylation, 1 uM peptide (% of best substrate) [5] was 14, the in vitro phosphorylation, 10 uM peptide (% of best substrate) [5] was 11 and the in vitro phosphorylation (% of best substrate) [6] was 22. For the same protein, the in vitro phosphorylation, 1 uM peptide (% of best substrate) [7] was 46, the in vitro phosphorylation, 10 uM peptide (% of best substrate) [7] was 53 and the in vitro phosphorylation (% of best substrate) [8] was 21. For the same protein, the in vitro phosphorylation, 1 uM peptide (% of best substrate) [9] was 66, the in vitro phosphorylation, 10 uM peptide (% of best substrate) [9] was 42 and the in vitro phosphorylation (% of best substrate) [10] was 18. The in vitro phosphorylation, 1 uM peptide (% of best substrate) [11] was 40, the in vitro phosphorylation, 10 uM peptide (% of best substrate) [11] was 19 and the in vitro phosphorylation (% of best substrate) [12] was 21. The in vitro phosphorylation (% of best substrate) [13] was 46, the in vitro phosphorylation, 1 uM peptide (% of best substrate) [14] was 35 and the in vitro phosphorylation, 10 uM peptide (% of best substrate) [14] was 35. It also gave an in vitro phosphorylation (% of best substrate) [15] of 29, an in vitro phosphorylation, 1 uM peptide (% of best substrate) [16] of 42 and an in vitro phosphorylation, 10 uM peptide (% of best substrate) [16] of 28. It also gave an in vitro phosphorylation, 1 uM peptide (% of best substrate) [17] of 34, an in vitro phosphorylation, 10 uM peptide (% of best substrate) [17] of 21 and an in vitro phosphorylation (% of best substrate) [18] of 9. The in vitro phosphorylation, 1 uM peptide (% of best substrate) [19] was 53, the in vitro phosphorylation, 10 uM peptide (% of best substrate) [19] was 35 and the in vitro phosphorylation, 1 uM peptide (% of best substrate) [20] was 35. It also gave an in vitro phosphorylation, 10 uM peptide (% of best substrate) [20] of 22, an in vitro phosphorylation (% of best substrate) [21] of 17 and an in vitro phosphorylation (% of best substrate) [22] of 10. The in vitro phosphorylation, 1 uM peptide (% of best substrate) [23] was 19, the in vitro phosphorylation, 10 uM peptide (% of best substrate) [23] was 23 and the in vitro phosphorylation (% of best substrate) [24] was 38. It also gave an in vitro phosphorylation (% of best substrate) [25] of 10, an in vitro phosphorylation (% of best substrate) [26] of 25 and an in vitro phosphorylation, 1 uM peptide (% of best substrate) [27] of 20. The in vitro phosphorylation, 10 uM peptide (% of best substrate) [27] was 69, the Peptide phosphorylation by PKC-theta [28] was 57 and the in vitro phosphorylation, 1 uM peptide (% of best substrate) [28] was 51. The in vitro phosphorylation, 10 uM peptide (% of best substrate) [28] was 57, the in vitro phosphorylation (% of best substrate) [29] was 87 and the in vitro phosphorylation (% of best substrate) [30] was 38. The in vitro phosphorylation, 1 uM peptide (% of best substrate) [31] was 31 and the in vitro phosphorylation, 10 uM peptide (% of best substrate) [31] was 30.

From patent publication US20050064507
